From patent US20020119154A1 (University of Pennsylvania, published 2002) come the findings set out here.

Sequences and labels used below:
B1: recombinant human prolactin binding protein (rhPRLBP) (receptor, UniProt P16471 25-234, looked up)
chain: QLPPGKPEIFKCRSPNKETFTCWWRPGTDGGLPTNYSLTYHREGETLMHECPDYITGGPNSCHFGKQYTSMWRTYIMMVNATNQMGSSFSDELYVDVTYIVQPDPPLELAVEVKQPEDRKPYLWIKWSPPTLIDLKTGWFTLLYEIRLKPEKAAEWEIHFAGQQTEFKILSLHPGQKYLVQVRCKPDHGYWSAWSPATFIQIPSDFTMND
B2: human prolactin (hPRL) (ligand, UniProt P01236 29-227, looked up)
chain: LPICPGGAARCQVTLRDLFDRAVVLSHYIHNLSSEMFSEFDKRYTHGRGFITKAINSCHTSSLATPEDKEQAQQMNQKDFLSLIVSILRSWNEPLYHLVTEVRGMQEAPEAILSKAVEIEEQTKRLLEGMELIVSQVHPETKENEIYPVWSGLPSLQMADEESRLSAYYNLLHCLRRDSHKIDNYLKLLKCRIIHNNNC
notes: Serum PRL and added hPRL are treated as one molecule; also called serum PRL; plasma PRL

For the assay “human prolactin (hPRL)”, the target named is B2. Kind of assay: cell-based or functional assay.
The target of assay [1] is B1. Kind of assay: surface plasmon resonance, various concentrations of rPRLBP; binding site I of PRL; rPRLBP in solution at various concentrations. (SPR reads the build-up and loss of mass on a sensor chip optically.)

As to B1, the “rat Nb2-11C lymphoma cell proliferation (tritiated thymidine uptake), 50 pM hPRL, 0-100 nM rhPRLBP” value with human prolactin (hPRL) was 3 fold.
As a reminder, the Kd is the constant that tells how readily two partners part at equilibrium. B2: the Kd in assay [1] came out at 13.4 nM.
